Molecular target: Epidermal Growth Factor Receptor (EGFR), Drosophila, endogenous (Drosophila (endogenous in ovaries)) (UniProt P04412)
Test: co-IP; ovarian lysates of wild-type females or females expressing D-CblL or RING-SH2^Drk in follicle cells, immunoprecipitated with mouse monoclonal anti-EGFR, 4°C; blotted with rabbit anti-EGFR and anti-Drk

UniProt P04412, sequence (P04412 31-1426): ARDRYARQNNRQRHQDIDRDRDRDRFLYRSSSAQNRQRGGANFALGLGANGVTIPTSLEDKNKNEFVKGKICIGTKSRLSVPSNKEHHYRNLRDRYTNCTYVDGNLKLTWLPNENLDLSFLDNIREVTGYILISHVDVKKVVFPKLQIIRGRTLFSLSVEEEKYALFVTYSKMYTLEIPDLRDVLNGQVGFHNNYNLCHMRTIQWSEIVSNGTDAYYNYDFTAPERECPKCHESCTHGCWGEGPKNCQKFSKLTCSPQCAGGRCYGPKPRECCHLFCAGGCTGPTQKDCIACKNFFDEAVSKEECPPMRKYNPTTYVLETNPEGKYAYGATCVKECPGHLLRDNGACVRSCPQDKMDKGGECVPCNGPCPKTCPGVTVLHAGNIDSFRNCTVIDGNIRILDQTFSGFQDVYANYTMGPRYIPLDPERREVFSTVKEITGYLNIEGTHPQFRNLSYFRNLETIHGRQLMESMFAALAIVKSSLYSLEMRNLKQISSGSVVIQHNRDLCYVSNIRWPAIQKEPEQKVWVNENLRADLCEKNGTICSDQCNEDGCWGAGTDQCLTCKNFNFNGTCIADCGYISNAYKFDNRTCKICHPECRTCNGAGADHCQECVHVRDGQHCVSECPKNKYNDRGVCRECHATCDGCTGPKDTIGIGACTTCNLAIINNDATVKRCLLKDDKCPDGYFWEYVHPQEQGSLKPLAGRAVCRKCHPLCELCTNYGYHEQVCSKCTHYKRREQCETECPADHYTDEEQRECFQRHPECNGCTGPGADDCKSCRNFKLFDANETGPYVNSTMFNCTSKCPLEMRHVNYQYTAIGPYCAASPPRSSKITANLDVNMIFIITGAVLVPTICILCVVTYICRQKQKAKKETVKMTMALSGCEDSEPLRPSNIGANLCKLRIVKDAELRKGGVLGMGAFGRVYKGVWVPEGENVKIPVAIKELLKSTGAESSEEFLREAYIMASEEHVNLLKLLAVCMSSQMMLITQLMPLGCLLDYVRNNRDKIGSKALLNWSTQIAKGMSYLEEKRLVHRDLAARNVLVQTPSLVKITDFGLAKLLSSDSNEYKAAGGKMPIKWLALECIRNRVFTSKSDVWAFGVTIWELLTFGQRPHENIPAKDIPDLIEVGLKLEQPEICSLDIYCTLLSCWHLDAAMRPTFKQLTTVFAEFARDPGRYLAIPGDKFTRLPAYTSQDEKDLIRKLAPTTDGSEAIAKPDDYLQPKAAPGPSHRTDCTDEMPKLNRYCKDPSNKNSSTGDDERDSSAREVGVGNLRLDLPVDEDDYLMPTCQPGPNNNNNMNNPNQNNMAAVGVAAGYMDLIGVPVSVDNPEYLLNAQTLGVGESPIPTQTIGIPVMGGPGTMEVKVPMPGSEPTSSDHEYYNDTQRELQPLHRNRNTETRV

RING-SH2^Drk, fusion of the RING finger domain of D-CblL and the SH2 domain of Drk (from UniProt Q08012 53-160)
percent reduction of Drk in the EGFR complex: 40%

From paper PMC3038869
